These results are taken from the supplement of paper PMC5998384.

Data set [1] deals with HeLa Kyoto. The data set can be described thus: solubility in G1/S (NP-40 vs SDS abundance) (log2 ratio); higher = more soluble. The conditions noted are these: cell cycle stage: G1/S.
In data set [2] the test system is HeLa Kyoto. The experiment in a line: thermal stability score vs G1/S (z-score of summed log2 fold changes over temperatures); higher = more thermally stable than in G1/S.
For data set [3], the system named is HeLa Kyoto. The data set can be described thus: melting temperature (median over replicates), in situ; higher = more thermally stable.
Data set [4] relates to HeLa Kyoto. The data set can be described thus: solubility change mitosis vs G1/S (difference of NP-40 vs SDS log2 ratios) (log2 ratio difference); higher = more soluble in mitosis.
Where [5] appears, read: cell cycle stage: early G1 (4.5 h after nocodazole release).
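Wherever melting temperature (median over replicates), in situ is given: HeLa Kyoto cells synchronized by double thymidine or nocodazole block, proteins quantified by TMT10plex mass spectrometry, three independent biological replicates.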
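Wherever solubility change mitosis vs G1/S (difference of NP-40 vs SDS log2 ratios) is given: synchronized HeLa Kyoto cells (double thymidine block for G1/S, nocodazole release for mitosis), protein amounts in NP-40 versus SDS lysates quantified by mass spectrometry, three biological replicates.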
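Wherever solubility in G1/S (NP-40 vs SDS abundance) is given: HeLa Kyoto cells arrested at G1/S by double thymidine block, proteins quantified by TMT10plex mass spectrometry in mild NP-40 versus SDS extracts, three biological replicates.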
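Wherever thermal stability score vs G1/S (z-score of summed log2 fold changes over temperatures) is given: synchronized HeLa Kyoto cells, proteins quantified by TMT10plex mass spectrometry, three biological replicates, mitosis taken 0.5 h after nocodazole release, G1/S directly after double thymidine block.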

In the case of “MATEIGSPPRFFHMPRFQHQAPRQLFYKRPDFAQQQAMQQLTFDGKRMRKAVNRKTIDYNPSVIKYLENRIWQRDQRDMRAIQPDAGYYNDLVPPIGMLNNPMNAVTTKFVRTSTNKVKCPVFVVRWTPEGRRLVTGASSGEFTLWNGLTFNFETILQAHDSPVRAMTWSHNDMWMLTADHGGYVKYWQSNMNNVKMFQAHKEAIREASFSPTDNKFATCSDDGTVRIWDFLRCHEERILRGHGADVKCVDWHPTKGLVVSGSKDSQQPIKFWDPKTGQSLATLHAHKNTVMEVKLNLNGNWLLTASRDHLCKLFDIRNLKEELQVFRGHKKEATAVAWHPVHEGLFASGGSDGSLLFWHVGVEKEVGGMEMAHEGMIWSLAWHPLGHILCSGSNDHTSKFWTRNRPGDKMRDRYNLNLLPGMSEDGVEYDDLEPNSLAVIPGMGIPEQLKLAMEQEQMGKDESNEIEMTIPGLDWGMEEVMQKDQKKVPQKKVPYAKPIPAQFQQAWMQNKVPIPAPNEVLNDRKEDIKLEEKKKTQAEIEQEMATLQYTNPQLLEQLKIERLAQKQVEQIQPPPSSGTPLLGPQPFPGQGPMSQIPQGFQQPHPSQQMPMNMAQMGPPGPQGQFRPPGPQGQMGPQGPPLHQGGGGPQGFMGPQGPQGPPQGLPRPQDMHGPQGMQRHPGPHGPLGPQGPPGPQGSSGPQGHMGPQGPPGPQGHIGPQGPPGPQGHLGPQGPPGTQGMQGPPGPRGMQGPPHPHGIQGGPGSQGIQGPVSQGPLMGLNPRGMQGPPGPRENQGPAPQGMIMGHPPQEMRGPHPPGGLLGHGPQEMRGPQEIRGMQGPPPQGSMLGPPQELRGPPGSQSQQGPPQGSLGPPPQGGMQGPPGPQGQQNPARGPHPSQGPIPFQQQKTPLLGDGPRAPFNQEGQSTGPPPLIPGLGQQGAQGRIPPLNPGQGPGPNKGDSRGPPNHHMGPMSERRHEQSGGPEHGPERGPFRGGQDCRGPPDRRGPHPDFPDDFSRPDDFHPDKRFGHRLREFEGRGGPLPQEEKWRRGGPGPPFPPDHREFSEGDGRGAARGPPGAWEGRRPGDERFPRDPEDPRFRGRREESFRRGAPPRHEGRAPPRGRDGFPGPEDFGPEENFDASEEAARGRDLRGRGRGTPRGGRKGLLPTPDEFPRFEGGRKPDSWDGNREPGPGHEHFRDTPRPDHPPHDGHSPASRERSSSLQGMDMASLPPRKRPWHDGPGTSEHREMEAPGGPSEDRGGKGRGGPGPAQRVPKSGRSSSLDGEHHDGYHRDEPFGGPPGSGTPSRGGRSGSNWGRGSNMNSGPPRRGASRGGGRGR [WDR33]”, the “solubility in G1/S (log2)” value in the data set on HeLa Kyoto [1] is -0.421. Besides, the thermal stability score was determined as 0.933 with HeLa Kyoto [2] (setting [5]) and 1.06 in the data set on HeLa Kyoto [2] (cell cycle stage: mitosis). For the same sequence, the melting temperature with HeLa Kyoto [3] (cell cycle stage: G1/S) was 49.3 °C; with HeLa Kyoto [3] (cell cycle stage: mitosis), 49.8 °C. Also, the “solubility change mitosis (log2)” value in the data set with HeLa Kyoto [4] was 0.257.
Turning to “MATELEYESVLCVKPDVSVYRIPPRASNRGYRASDWKLDQPDWTGRLRITSKGKTAYIKLEDKVSGELFAQAPVEQYPGIAVETVTDSSRYFVIRIQDGTGRSAFIGIGFTDRGDAFDFNVSLQDHFKWVKQESEISKESQEMDARPKLDLGFKEGQTIKLCIGNITNKKGGASKPRTARGGGLSLLPPPPGGKVTIPPPSSSVAISNHVTPPPIPKSNHGGSDADILLDLDSPAPVTTPAPTPVSVSNDLWGDFSTASSSVPNQAPQPSNWVQF [NECAP1]”, the “solubility in G1/S (log2)” value in the data set with HeLa Kyoto [1] is 0.521. Also, the figures for the thermal stability score in the data set with HeLa Kyoto [2] (setting [5]) and in the data set on HeLa Kyoto [2] (cell cycle stage: mitosis) were 0.202 and 0.108, respectively. In addition, the melting temperature in the data set on HeLa Kyoto [3] (cell cycle stage: G1/S) was determined as 51.5 °C; in the data set with HeLa Kyoto [3] (cell cycle stage: mitosis), 52.4 °C. Moreover, the “solubility change mitosis (log2)” value with HeLa Kyoto [4] is -0.274.
With “MATERSRSAMDSPVPASMFAPEPSSPGAARAAAAAARLHGGFDSDCSEDGEALNGEPELDLTSKLVLVSPTSEQYDSLLRQMWERMDEGCGETIYVIGQGSDGTEYGLSEADMEASYATVKSMAEQIEADVILLRERQEAGGRVRDYLVRKRVGDNDFLEVRVAVVGNVDAGKSTLLGVLTHGELDNGRGFARQKLFRHKHEIESGRTSSVGNDILGFDSEGNVVNKPDSHGGSLEWTKICEKSTKVITFIDLAGHEKYLKTTVFGMTGHLPDFCMLMVGSNAGIVGMTKEHLGLALALNVPVFVVVTKIDMCPANILQETLKLLQRLLKSPGCRKIPVLVQSKDDVIVTASNFSSERMCPIFQISNVTGENLDLLKMFLNLLSPRTSYREEEPAEFQIDDTYSVPGVGTVVSGTTLRGLIKLNDTLLLGPDPLGNFLSIAVKSIHRKRMPVKEVRGGQTASFALKKIKRSSIRKGMVMVSPRLNPQASWEFEAEILVLHHPTTISPRYQAMVHCGSIRQTATILSMDKDCLRTGDKATVHFRFIKTPEYLHIDQRLVFREGRTKAVGTITKLLQTTNNSPMNSKPQQIKMQSTKKGPLTKRDEGGPSGGPAVGAPPPGDEASSVGAGQPAASSNLQPQPKPSSGGRRRGGQRHKVKSQGACVTPASGC [GTPBP1]”, in the data set on HeLa Kyoto [1], the “solubility in G1/S (log2)” value stood at 0.0683. Further, the thermal stability score in the data set on HeLa Kyoto [2] (setting [5]) is 1.01; in the data set with HeLa Kyoto [2] (cell cycle stage: mitosis) it was 0.553. For the same sequence, the melting temperature was 51.1 °C in the data set on HeLa Kyoto [3] (cell cycle stage: G1/S) and 50.7 °C in the data set on HeLa Kyoto [3] (cell cycle stage: mitosis). Besides, in the data set on HeLa Kyoto [4], the “solubility change mitosis (log2)” value was -0.0833.
